± gives the standard deviation of the averaged measurements.
These sequences were tested on Saccharomyces cerevisiae (assay: protein stability index of tFT-peptide fusion (C-terminal peptide) (PSI (0-1 scale)); higher = more stable (slower turnover)). Settings: genetic background: wild type; temperature: 30 C.
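Note: PSI is a weighted mean of sequencing reads over stability bins, variants kept only with over 10 reads, mCherry proximal and sfGFP distal, peptide attached via GGGS linker.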

Sequence | protein stability index
SGGRRRAGKGAT | 0.69 ± 0.049
SGGVLSNGRLAA | 0.684 ± 0.052
SGHRLTYEFFPT | 0.741 ± 0.074
SGLFFRWCRLSW | 0.638 ± 0.031
SGLFGDAVPCCV | 0.632 ± 0.03
SGNYRGGLTVFS | 0.711 ± 0.023
SGPGPGAVGATC | 0.702 ± 0.057
SGPTFRWAGVLC | 0.593 ± 0.014
SGRGVEVGGEGE | 0.752 ± 0.053
SGRIHLLHSPWV | 0.712 ± 0.052
SGRMAIYVFGVV | 0.579 ± 0.01
SGSMHWTDPPGS | 0.6747 ± 0.0051
SGSVLHEFILVV | 0.543 ± 0.028
SGTLYELNAVVV | 0.644 ± 0.016
SGTPTFTPSYPS | 0.717 ± 0.026
SGTVRRQCGNPD | 0.69752 ± 0.00027
SGVALFFFPPLL | 0.71 ± 0.039
SGVGLAETAGDD | 0.68 ± 0.027
SGVGSRDGVRGA | 0.684 ± 0.048
SGYCCDGCKGSY | 0.6461 ± 0.0028
SHAATKGSLFNV | 0.631 ± 0.0074
SHEARMVCGSSV | 0.63331 ± 0.00024
SHLLPPPLTPAS | 0.673 ± 0.031

Sequence | protein stability index
SHLMETPACSAP | 0.915 ± 0.082
SHPLTLPSLLPP | 0.717 ± 0.045
SHRRLPPSRFYR | 0.7 ± 0.081
SHSTNNHKLTPR | 0.677 ± 0.082
SHSTPAFPLPPP | 0.638 ± 0.068
SHVDRVVFWYLL | 0.529 ± 0.033
SHVLPHPGLSPP | 0.655 ± 0.061
SHVMLCLHFLFR | 0.498 ± 0.018
SHVVDAPYRSEG | 0.66601 ± 0.00013
SINLLFHSFFFL | 0.608 ± 0.047
SIPAPLAPLWGL | 0.627 ± 0.055
SIPVPFSFPLFI | 0.598 ± 0.0065
SIQVFDTYIITD | 0.697 ± 0.068
SIRGLRTLKFLG | 0.6739 ± 0.0049
SIRNNMKRVRKN | 0.631 ± 0.022
SISFPPPPRSLT | 0.719 ± 0.08
SIWLLSGGQCFL | 0.684 ± 0.027
SKERLKSEKMKK | 0.745 ± 0.059
SKGQLRLNMCIL | 0.662 ± 0.046
SKKKKNLQIPKK | 0.734 ± 0.12
SKKTSRSKVHTS | 0.685 ± 0.069
SLALSSPLPPPP | 0.735 ± 0.042
SLALVATWCGYR | 0.688 ± 0.052

Sequence | protein stability index
SLASWLCVFSWD | 0.673 ± 0.027
SLCTFSFLRFGF | 0.738 ± 0.015
SLCTSVPEPPFS | 0.687 ± 0.0072
SLDLSQPMPWYH | 0.711 ± 0.051
SLDQGSSSLFIM | 0.731 ± 0.082
SLEFISIAFLDL | 0.685 ± 0.042
SLEQRPLQRPPS | 0.6941 ± 0.0063
SLFALPLPPPAQ | 0.695 ± 0.025
SLFFPLPLSSLF | 0.736 ± 0.07
SLFHTSLAYSFF | 0.7143 ± 0.0066
SLFLSRRSLYRV | 0.738 ± 0.034
SLFLVLSLAQLL | 0.579 ± 0.066
SLFPAGWAGFSD | 0.73 ± 0.011
SLFRGHLLPPRP | 0.688 ± 0.036
SLIPLLPPRSLS | 0.594 ± 0.1
SLKIHIKQIEKK | 0.766 ± 0.022
SLLILMYHIAPF | 0.53 ± 0.03
SLLLPPRPPCPP | 0.737 ± 0.024
SLLLRVLCGRLS | 0.5104 ± 0.0037
SLLPHAHAPSPL | 0.673 ± 0.014
SLLPHSPLLPPP | 0.694 ± 0.0031
SLLPQSAGRRPH | 0.666 ± 0.063
SLLPRLTPHSPI | 0.75 ± 0.051

Sequence | protein stability index
SLLSTPPPLASP | 0.669 ± 0.039
SLPALPPLGLFS | 0.71 ± 0.017
SLPCPISPPSFL | 0.697 ± 0.018
SLPLHFISGFYV | 0.6586 ± 0.0043
SLPLPPCLSPLQ | 0.723 ± 0.054
SLPLPVFSFPCS | 0.653 ± 0.00069
SLPLSSALFPPL | 0.72 ± 0.076
SLPPALPLPLSH | 0.64 ± 0.06
SLPPPPCLPPLT | 0.675 ± 0.044
SLPPSFPPPFLF | 0.7355 ± 0.001
SLRNGESTGLCF | 0.743 ± 0.098
SLRPALSFLPLP | 0.716 ± 0.054
SLSCDITRFVEY | 0.712 ± 0.19
SLSHSPSPPPPT | 0.638 ± 0.0084
SLSPWRLPIGGW | 0.708 ± 0.033
SLSSAPPIPPTL | 0.697 ± 0.011
SLSSRSVSLFKF | 0.806 ± 0.13
SLSTAEAHGRRS | 0.72 ± 0.082
SLSTLVFSFCVL | 0.517 ± 0.03
SLSVRTIFTSRS | 0.71 ± 0.071
SLTEAVHWDRIS | 0.67 ± 0.032
SLTLAHPGVDLA | 0.709 ± 0.021
SLTTPGMSQAYY | 0.703 ± 0.034

Sequence | protein stability index
SLVSTSRALFAQ | 0.659 ± 0.019
SLVSWAGLLFWG | 0.727 ± 0.058
SLWVLPGPVVLG | 0.621 ± 0.039
SLWVSLSCFRVV | 0.588 ± 0.028
SMAPDIQLYTAS | 0.68901 ± 0.0006
SMEVRGLKVRSC | 0.617 ± 0.015
SMFFNSIDATRW | 0.721 ± 0.053
SMGLYRDVVSGH | 0.665 ± 0.029
SMKAYRTLKTRL | 0.636 ± 0.075
SMWNFPRLAKTR | 0.685 ± 0.018
SNACHTTFGDPI | 0.719 ± 0.0078
SNAFWVRPFKIG | 0.667 ± 0.013
SNCLKHAYTTRT | 0.6604 ± 0.0056
SNTVSRAPFLLA | 0.681 ± 0.15
SNWGLYGCRLYP | 0.759 ± 0.073
SPAASPSRPPPI | 0.648 ± 0.025
SPAGQRPQVPVS | 0.667 ± 0.075
SPALPPPAPRLL | 0.719 ± 0.061
SPALSPCLRTGY | 0.717 ± 0.062
SPAPQLFLPPPV | 0.665 ± 0.052
SPCLLTLPVPFL | 0.695 ± 0.017
SPCLTRSALPSP | 0.687 ± 0.038
SPCVPTPSRPAS | 0.685 ± 0.079

Sequence | protein stability index
SPDFSVITKSYL | 0.764 ± 0.032
SPDGVEILPIRG | 0.684 ± 0.017
SPEFIQAIQNPV | 0.724 ± 0.049
SPEVIHVVFCDL | 0.697 ± 0.043
SPFEASSPQVLT | 0.644 ± 0.0094
SPFLSLPHPSFP | 0.6053 ± 0.0013
SPFRATPYPLLP | 0.6909 ± 0.0031
SPGDVVVAVGGG | 0.6669 ± 0.0037
SPGLYGPLSRGM | 0.684 ± 0.063
SPGNLPMSSSLL | 0.686 ± 0.022
SPGSVIVSASLL | 0.651 ± 0.039
SPHPPPPPSPPP | 0.723 ± 0.059
SPISFIHPHISG | 0.644 ± 0.017
SPLDSPPLSSPP | 0.659 ± 0.028
SPLEFPLLPSGV | 0.7 ± 0.064
SPLLPPPPSPPL | 0.633 ± 0.081
SPLPPPLCPPPL | 0.608 ± 0.034
SPLPPPPRPPLP | 0.691 ± 0.039
SPLPPSRSVHCA | 0.748 ± 0.072
SPLPRLPPGPLP | 0.68 ± 0.03
SPLSLSFLLLCL | 0.524 ± 0.028
SPLSPAVPSTAL | 0.742 ± 0.056
SPLSPPHRHNTT | 0.701 ± 0.017

Sequence | protein stability index
SPLTCKSLRAQR | 0.738 ± 0.022
SPPGTCPTIRPS | 0.664 ± 0.014
SPPLLLPNLCPC | 0.543 ± 0.023
SPPLPPPPPFPL | 0.74 ± 0.053
SPPLPPTPPVTT | 0.705 ± 0.19
SPPLSFPTLQLF | 0.625 ± 0.15
SPPLTLPPYPPP | 0.7149 ± 0.0031
SPPPALPPPRPL | 0.749 ± 0.031
SPPPASDHPNPL | 0.648 ± 0.063
SPPPPPAPHPCP | 0.686 ± 0.03
SPPPPPLPPSPR | 0.713 ± 0.0078
SPPPPPPRPPPP | 0.691 ± 0.015
SPPPPPPRSPPL | 0.606 ± 0.0074
SPPPPPVHPSSP | 0.722 ± 0.019
SPPPPYPSLFPL | 0.677 ± 0.034
SPPPTPLPPPPP | 0.628 ± 0.094
SPPQTETGAQRP | 0.666 ± 0.051
SPPRAGTPTSRP | 0.667 ± 0.097
SPPRPPRPRYLF | 0.6947 ± 0.0062
SPPSPGLDPVCP | 0.66 ± 0.089
SPPSRLRPAILP | 0.668 ± 0.032
SPPTCPNQLGPP | 0.7 ± 0.074

— the supplement of paper PMC10724198
